Experiments:
Experiment in all cases: ELISA
Settings in all cases: both partners purified
[1] = molecular target: T1, HlgB (Staphylococcus aureus, strain not told, UniProt P0A077)
T1 construct: source: purified recombinant

[2] = molecular target: T2, LukE (Staphylococcus aureus, strain , UniProt O54081)
T2 construct: source: purified recombinant

[3] = molecular target: T3, γ-hemolysin subunit HlgC, recombinant holoprotein (Staphylococcus aureus, strain not told, UniProt Q07227)
T3 construct: source: purified recombinant

[4] = molecular target: T4, LukD (Staphylococcus aureus, strain , UniProt O54082)
T4 construct: source: purified recombinant

[5] = molecular target: T5, LukS, S subunit of the Panton-Valentine leukocidin (LukSF), recombinant holoprotein (Staphylococcus aureus, strain not …, UniProt O80066)
T5 construct: source: purified recombinant

[6] = molecular target: T6, HlgA (Staphylococcus aureus, strain not told, UniProt P0A074)
T6 construct: source: purified recombinant

| Binder | binding result [1] | binding result [2] | binding result [3] | binding result [4] | binding result [5] | binding result [6] |
| --- | --- | --- | --- | --- | --- | --- |
| anti-HlgC1 MAb (antibody, V domains shown, also called anti-HIgC1 MAb; source: murine B-cell hybridoma (BALB/c mice immunized with recombinant HlgC)) VH: QVQLLQSGAELVKPGASVQLSCKASGFTFTKHDINWVRQRPEQGLEWIGWIFPGDGNTKYNEKFKGKATLTTDKSSSTAYMQLNGLTSEDSAVYFCAKEIFYWGQGTSVTVSS VL: DIVMTQSPSSLTVTAGEKVTMSCKSSQSLLNSENQRNYLTWYQQKPGQPPKLLISWASTRESGVPDRFTGSGSGTDFTLTISSVQAEDLAVYYCQNDFSYPLTFGAGTKLELR | no binding (tested: MAb at 2 μg/ml) | no binding (tested: MAb at 2 μg/ml) | binds | no binding (tested: MAb at 2 μg/ml) | binds | no binding (tested: MAb at 2 μg/ml) |
| anti-HlgC3 MAb (antibody, V domains shown, also called anti-HIgC3 MAb; source: murine B-cell hybridoma (BALB/c mice immunized with recombinant HlgC)) VH: QVQLLQSGAELVKPGASVQLSCKASGFTFTKYDINWVRQRPDQGLEWIGWIFPGDGNTKYNDKFKGKVILTTDKSSSTAYMQLSRLTSEDSAVYFCAREIFYWGQGTSVTVSA VL: DIVMTQSPSSLTVTAGEKVTMSCKSSQSLFNSENQRNYLTWYQQKPRQPPKLLISWASTRESEVPDRFTGSGSGTDFTLTISSVQAEDLAVYYCQNDYSYPLTFGAGTKLELR | no binding (tested: MAb at 2 μg/ml) | no binding (tested: MAb at 2 μg/ml) | binds | no binding (tested: MAb at 2 μg/ml) | binds | no binding (tested: MAb at 2 μg/ml) |
| anti-HlgC4 MAb (antibody, V domains shown, also called anti-HIgC4 MAb; source: murine B-cell hybridoma (BALB/c mice immunized with recombinant HlgC)) VH: QVQLLQSGAELVKPGASVQLSCKASGFTFTKYDINWVRQRPDQGLEWIGWIFPGDGNTKYNDKFKGKVILTTDKSSSTAYMQLTRLTSEDSAVYFCAREIFYWGQGTSVTVSS VL: DIVMTQSPSSLTVTAGEKVTMSCKSSQSLLNSENQRNYLTWYQQKPGQPPKLLISWASTRESGVPDRFTGSGSGTDFTLTISSVQAEDLAVYYCQNDYSYPLTFGAGTKLELR | no binding (tested: MAb at 2 μg/ml) | no binding (tested: MAb at 2 μg/ml) | binds | no binding (tested: MAb at 2 μg/ml) | binds | no binding (tested: MAb at 2 μg/ml) |
| anti-HlgC2 MAb (antibody, V domains shown, also called anti-HIgC2 MAb; source: murine B-cell hybridoma (BALB/c mice immunized with recombinant HlgC)) VH: QVQLKESGPGLVAPSQSLSITCTVSGFSLTNFAVHWVRQPRGKGLEWLGSIWADGRTIYSALMSRLSISKDNSKSQVFLNMNSLQTDDTAMYYCATPFYFGYDGGYAMDHWGQGTSVTVSS VL: DVLMTQTPLSLPVSLGDQASISCRSSQSIVHGSGNTYLEWYLQKPGQSPKLLIYKVSNRLSGVPDRISGSGSGTDFTLKINRVEAEDLGVYYCFQGSHVPYTFGGGTKLEMK | no binding (tested: MAb at 2 μg/ml) | no binding (tested: MAb at 2 μg/ml) | binds | no binding (tested: MAb at 2 μg/ml) | binds | no binding (tested: MAb at 2 μg/ml) |

— article PMC7298706 (mBio, 2020)
